T1: human BCMA on cells (human, UniProt Q02223 1-184)
T1 sequence (looked up): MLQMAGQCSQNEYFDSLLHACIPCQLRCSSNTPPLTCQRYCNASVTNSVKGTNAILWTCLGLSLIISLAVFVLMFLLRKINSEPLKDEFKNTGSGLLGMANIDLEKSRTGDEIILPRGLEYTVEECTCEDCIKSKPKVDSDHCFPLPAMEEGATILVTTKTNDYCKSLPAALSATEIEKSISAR

T2: human BCMA protein (human, UniProt Q02223 1-54, limits assumed)
T2 construct: also called hBCMA; Antigen BCMA
T2 sequence (looked up): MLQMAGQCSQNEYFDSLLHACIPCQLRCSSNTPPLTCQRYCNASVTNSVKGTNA


Legend:
human BCMA on cells [1] = target: T1, human BCMA on cells; test: cell-based or functional assay
human BCMA on cells [2] = target: T1, human BCMA on cells; test: flow cytometry, MM1S cells
Method: (§1) NCI-H929 cells (BCMA+++), MM1S cells (BCMA++), and RPMI-8226 cells (BCMA+) in the logarithmic growth phase were taken, adjusted to a cell density of 5×10⁶-10×10⁶ cells/mL using RPMI medium (Hyclon, catalog No. SH30809.01) containing 2% FBS (fetal bovine serum), respectively, and seeded in a 96-well U-bottom cell culture plate (Costar, catalog No. 3799) at 50 μL per well. The test antibodies at different concentrations were prepared using the medium described above. […] The antibodies at different concentrations were added to the 96-well cell culture plate described above at 50 μL per well, mixed well and incubated at 4° C. for 1 h. The cells were washed with pre-cooled running buffer (MACS, catalog No. 130-091-221), and the supernatant was discarded. Pre-cooled fluorescent labeled goat anti-human IgG antibodies (Jackson, catalog No. 109-116-170) were added, and the cells were resuspended at 100 μL per well, mixed well and incubated at 4° C. for 30 min. After washing, 100 μL of pre-cooled running buffer was added to resuspend the cells. The cells were mixed well and collected while flowing on an Attune™ NxT flow cytometer, and the data was analyzed using Graphpad Prism5 software. FIGS. 7-9 and Table 11 show the binding ability of the anti-BCMA/anti-CD3 multispecific antibodies to NCI-H929 cells (BCMA+++), MM1S cells (BCMA++), and RPMI-8226 cells (BCMA+).

[3] = target: T3, human CD3e (Acro, Cat. No. CDE-H5223) (human, UniProt P07766 23-126); test: SPR (Biacore T200), antibody captured by anti-hIgG, human CD3e as analyte, 1:1 model
T3 construct: also called human CD3e protein; hCD3e
T3 sequence (P07766 23-126 limits assumed): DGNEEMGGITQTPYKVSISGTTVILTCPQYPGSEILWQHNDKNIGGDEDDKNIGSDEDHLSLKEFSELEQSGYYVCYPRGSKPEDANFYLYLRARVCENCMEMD
Method: (§2) The affinity of the test antibody for human CD3e or human BCMA protein was determined by Biacore T200 (GE) as follows:
(§3) The response signals were detected in real time using Biacore software, and association and dissociation curves were obtained. The buffer used in the experiment was Biacore universal buffer (137 mM NaCl, 2.7 mM KCl, 10 mM Na₂HPO₄.12H₂O, 1.8 mM KH₂PO₄. 0.05% surfactant P-20 (w/v), pH 7.4). […] The flow rate in the flow cell was at 50 μL/min, the association was performed for 240 s, the dissociation was performed for 1400 s, the regeneration was performed using 3 M MgCl (GE) for 60 s, and the baseline was stable. Results were obtained by calculation according to the affinity and kinetics 1:1 binding mode in biacore evaluation software.

T cell surface CD3 = target: T4, T cell surface CD3 (human, UniProt P07766 23-207); test: flow cytometry, human CD3+ T cells
T4 construct: whole, on cells; also called CD3^+ T cells
T4 sequence (P07766 23-207): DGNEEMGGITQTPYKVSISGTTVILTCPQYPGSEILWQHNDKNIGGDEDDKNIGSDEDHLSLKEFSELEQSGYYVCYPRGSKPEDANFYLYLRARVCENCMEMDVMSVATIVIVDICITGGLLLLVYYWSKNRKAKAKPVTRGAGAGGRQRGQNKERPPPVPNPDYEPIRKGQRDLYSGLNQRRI
Method: Human PBMC cells were sorted for CD3⁺ T cells using CD3 magnetic beads (Miltenyi, catalog No. 130-097-043): the cryopreserved PBMCs were thawed, and washed by centrifugation twice for counting. Running buffer (MACS, catalog No. 130-091-221) was added in a cell-to-buffer ratio of 10⁷:80 μL, CD3 beads were added in a cell-to-bead ratio of 10⁷:20 μL, and the mixture was mixed well and incubated at 4° C. for 15 min. The cells were washed with buffer in a cell-to-buffer ratio of 10⁷:1-2 mL. After centrifugation, the supernatant was discarded, and 500 μL of buffer was added to resuspend the cell pellet. The LS sorting column (Miltenyi, catalog No. 130-042-401) was placed on the MidiMACS Starting Kit (LS) magnetic rack (Miltenyi, catalog No. 130-091-051). After rinsing, the cell suspension was added and washed thrice. The LS sorting column was removed from the magnetic rack and placed on a clean centrifuge tube and 5 mL buffer was added to collect the sorted CD3⁺ T cells. After counting, the CD3⁺ T cells were adjusted to a cell density of 5×10⁶-10×10⁶ cells/mL using RPMI medium (Hyclone, catalog No. SH30809.01) containing 2% FBS (fetal bovine serum) and seeded in a 96-well U-bottom cell culture plate (Costar, catalog No. 3799) at 50 μL per well. The test antibodies at different concentrations were prepared using the medium described above. […] The antibodies at different concentrations were added to the 96-well cell culture plate described above at 50 μL per well, mixed well and incubated at 4° C. for 1 h. The cells were washed with pre-cooled running buffer (MACS, catalog No. 130-091-221), and the supernatant was discarded. Pre-cooled fluorescent labeled goat anti-human IgG antibodies (Jackson, catalog No. 109-116-170) were added, and the cells were resuspended at 100 μL per well, mixed well and incubated at 4° C. for 30 min. After washing, 100 μL of pre-cooled running buffer was added to resuspend the cells.

human BCMA on cells [4] = target: T1, human BCMA on cells; test: cell-based or functional assay; remark: listed apart in the source
human BCMA on cells [5] = target: T1, human BCMA on cells; test: flow cytometry, NCI-H929 cells
Method: as §1

human BCMA on cells [6] = target: T1, human BCMA on cells; test: cell-based or functional assay; remark: listed apart in the source
human BCMA protein = target: T2, human BCMA protein; test: SPR (Biacore T200), antibody captured by anti-hIgG, human BCMA as analyte, 1:1 model
Method: as §2, §3

Binder	Lysis EC50, MM1S cells with human PBMCs (E:T 10:1, 24 h, LDH release) (human BCMA on cells [1])	Maximum lysis rate, MM1S cells with human PBMCs (human BCMA on cells [1])	EC50 (human BCMA on cells [2])	Top(MFI) (human BCMA on cells [2])	Kd [3]	EC50 (T cell surface CD3)	Top(MFI) (T cell surface CD3)	Lysis EC50, RPMI-8226 cells with human PBMCs (E:T 10:1, 24 h, LDH release) (human BCMA on cells [4])	Maximum lysis rate, RPMI-8226 cells with human PBMCs (human BCMA on cells [4])	EC50 (human BCMA on cells [5])	Top(MFI) (human BCMA on cells [5])	Lysis EC50, NCI-H929 cells with human PBMCs (E:T 10:1, 24 h, LDH release) (human BCMA on cells [6])	Maximum lysis rate, NCI-H929 cells with human PBMCs (human BCMA on cells [6])	Kd (human BCMA protein)
anti-BCMA/anti-CD3 multispecific antibody PC3 (bispecific antibody, human IgG1, lambda, L234A L235A, Trivalent; three chains; human IgG1 knobs-into-holes Fc) QVQLVESGGGLVQPGGSLRLSCAASGFTFNSACMGWFRQAPGKGREGVSRIETGYGGTVYADSVKGRFTISRDNSKNTVYLQMNSLRAEDTAVYYCAAKRSWCTPTWWHELDYNYWGQGTQVTVSSGEPKSSDKTHTCPPCPAPEAAGGPSVFLFPPKPKDTLMISRTPEVTCVVVDVSHEDPEVKFNWYVDGVEVHNAKTKPREEQYNSTYRVVSVLTVLHQDWLNGKEYKCKVSNKALAAPIEKTISKAKGQPREPQVCTLPPSREEMTKNQVSLSCAVKGFYPSDIAVEWESNGQPENNYKTTPPVLDSDGSFFLVSKLTVDKSRWQQGNVFSCSVMHEALHNHYTQKSLSLSPGK heavy: EVQLVESGGGLVQPGGSLRLSCAASGFTFNTYAMNWVRQAPGKGLEWVARIRSKYNNYATYYADSVKDRFTISRDDSKNTAYLQMNNLKTEDTAMYYCVRHGNFGNSYVSWFAYWGQGTLVTVSSASTKGPSVFPLAPSSKSTSGGTAALGCLVKDYFPEPVTVSWNSGALTSGVHTFPAVLQSSGLYSLSSVVTVPSSSLGTQTYICNVNHKPSNTKVDKKVEPKSCDKTHTCPPCPAPEAAGGPSVFLFPPKPKDTLMISRTPEVTCVVVDVSHEDPEVKFNWYVDGVEVHNAKTKPREEQYNSTYRVVSVLTVLHQDWLNGKEYKCKVSNKALAAPIEKTISKAKGQPREPQVYTLPPCREEMTKNQVSLWCLVKGFYPSDIAVEWESNGQPENNYKTTPPVLDSDGSFFLYSKLTVDKSRWQQGNVFSCSVMHEALHNRFTQKSLSLSPGK light: QVQLVESGGGLVQPGGSLRLSCAASGYSSNVACMAWYRQAPGKGLEWVATIVADFGTTNYAASVKGRFTISQDNSKNTVYLQMNSLRAEDTAVYYCAATQRGGIDWCDEINYWGQGTLVTVSSGGGGSELVVTQEPSLTTSPGGTVTLTCRSSTGAVTTSNYANWVQQKPGQAPRGLIGGTNKRAPGTPARFSGSLLGGKAALTITGVQPEDEAEYYCALWYSNLWVFGGGTKLTVLGQPKANPTVTLFPPSSEELQANKATLVCLISDFYPGAVTVAWKADGSPVKAGVETTKPSKQSNNKYAASSYLSLTPEQWKSHRSYSCQVTHEGSTVEKTVAPTECS	40.7 pM	36%	338 pM	124000 MFI	1170 pM	85800 pM	98400 MFI	14.2 pM	39%	837 pM	223000 MFI	187 pM	35%	34.7 pM
anti-BCMA/anti-CD3 multispecific antibody BC24 (bispecific antibody, human IgG1, lambda, L234A L235A, Trivalent: 1A10 VHH and 1A11 VHH in tandem on one Fc polypeptide, anti-CD3 Fab on the other; human IgG1 knobs-into-holes Fc) QVQLVESGGGSVQAGGSLRLSCAASGYSSNVACMAWYRQAPGKEREWVATIVADFGTTNYAASVKGRFTISQDNAKNTVYLQMNSLKPEDSAMYYCAATQRGGIDWCDEINYWGQGTLVTVSSGGGGSGGGGSQVQLVESGGGSVQAGGSLRLSCAASGVTFNSACMGWFRQAPGKEREGVARIETGYGGTVYADSVKGRFTISRDNAKNTVYLQMNSLKPEDTAMYYCAAKRSWCTPTWWHELDYNYWGQGTQVTVSSGEPKSSDKTHTCPPCPAPEAAGGPSVFLFPPKPKDTLMISRTPEVTCVVVDVSHEDPEVKFNWYVDGVEVHNAKTKPREEQYNSTYRVVSVLTVLHQDWLNGKEYKCKVSNKALAAPIEKTISKAKGQPREPQVCTLPPSREEMTKNQVSLSCAVKGFYPSDIAVEWESNGQPENNYKTTPPVLDSDGSFFLVSKLTVDKSRWQQGNVFSCSVMHEALHNHYTQKSLSLSPGK heavy: EVQLVESGGGLVQPGGSLRLSCAASGFTFNTYAMNWVRQAPGKGLEWVARIRSKYNNYATYYADSVKDRFTISRDDSKNTAYLQMNNLKTEDTAMYYCVRHGNFGNSYVSWFAYWGQGTLVTVSSASTKGPSVFPLAPSSKSTSGGTAALGCLVKDYFPEPVTVSWNSGALTSGVHTFPAVLQSSGLYSLSSVVTVPSSSLGTQTYICNVNHKPSNTKVDKKVEPKSCDKTHTCPPCPAPEAAGGPSVFLFPPKPKDTLMISRTPEVTCVVVDVSHEDPEVKFNWYVDGVEVHNAKTKPREEQYNSTYRVVSVLTVLHQDWLNGKEYKCKVSNKALAAPIEKTISKAKGQPREPQVYTLPPCREEMTKNQVSLWCLVKGFYPSDIAVEWESNGQPENNYKTTPPVLDSDGSFFLYSKLTVDKSRWQQGNVFSCSVMHEALHNRFTQKSLSLSPGK light: ELVVTQEPSLTTSPGGTVTLTCRSSTGAVTTSNYANWVQQKPGQAPRGLIGGTNKRAPGTPARFSGSLLGGKAALTITGVQPEDEAEYYCALWYSNLWVFGGGTKLTVLGQPKANPTVTLFPPSSEELQANKATLVCLISDFYPGAVTVAWKADGSPVKAGVETTKPSKQSNNKYAASSYLSLTPEQWKSHRSYSCQVTHEGSTVEKTVAPTECS	9.37 pM	21%	535 pM	107000 MFI	286 pM	38300 pM	163000 MFI	11.3 pM	29%	1560 pM	186000 MFI	21.8 pM	40%	62.7 pM
